Common to all, as to test: cell-based or functional assay
Assay [1] addresses T1, schistosome legumain SmAE (Schistosoma mansoni asparaginyl endopeptidase) (Schistosoma mansoni), P09841.
T1 chain: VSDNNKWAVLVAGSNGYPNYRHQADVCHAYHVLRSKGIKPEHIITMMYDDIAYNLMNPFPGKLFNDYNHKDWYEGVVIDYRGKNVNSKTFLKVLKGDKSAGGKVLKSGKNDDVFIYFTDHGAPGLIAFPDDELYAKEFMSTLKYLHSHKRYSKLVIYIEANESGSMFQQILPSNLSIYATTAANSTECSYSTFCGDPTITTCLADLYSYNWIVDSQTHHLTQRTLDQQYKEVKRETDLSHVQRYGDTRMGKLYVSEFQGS

The target in assay [2] is T2, Clostripain, P09870.
T2 chain: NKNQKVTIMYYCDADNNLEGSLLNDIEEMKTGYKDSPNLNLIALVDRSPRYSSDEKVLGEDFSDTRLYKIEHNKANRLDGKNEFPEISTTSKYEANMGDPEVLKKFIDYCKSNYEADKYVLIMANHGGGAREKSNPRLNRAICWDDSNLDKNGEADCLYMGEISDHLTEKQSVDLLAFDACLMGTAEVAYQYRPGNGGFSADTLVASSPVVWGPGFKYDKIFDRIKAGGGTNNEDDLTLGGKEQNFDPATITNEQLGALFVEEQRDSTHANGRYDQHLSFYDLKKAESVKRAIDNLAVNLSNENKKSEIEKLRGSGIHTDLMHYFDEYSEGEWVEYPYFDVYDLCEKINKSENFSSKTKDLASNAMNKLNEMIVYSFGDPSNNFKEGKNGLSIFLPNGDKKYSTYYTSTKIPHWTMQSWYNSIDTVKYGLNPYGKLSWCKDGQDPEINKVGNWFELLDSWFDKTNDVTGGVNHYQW

The target of assay [3] is Gingipain K.
Assay [4] has as its target Gingipain R.

Square brackets hold non-standard residues; d marks the D form. * marks the point of attachment. Hydrocinnamoyl = O=C(CCc1ccccc1)*; CH:CH‑COOEt = CCOC(=O)/C=C/*; AOrn = not defined here; Cbz = O=C(OCc1ccccc1)*

As to AAN (modifications not checked) [Cbz-Ala-Ala-AAsn-CH═CH-CON(Bzl-4-OMe)Bzl], the IC50 (as a rule, the point on the concentration scale where inhibition reaches its midpoint) in assay [1] was determined as 90 nM.
In assay [1], AAN (modifications not checked) [Cbz-Ala-Ala-AAsn-CH═CH-CON(CH2-2-furyl)2] yielded a concentration for half-maximal inhibition (IC50) of 900 nM.
Consider Cbz-Ala-Ala-[AAsn]-{CH:CH‑CON(Bzl)2} [Cbz-Ala-Ala-AAsn-CH═CH-CON(Bzl)2], for which, in assay [1], the IC50 came to 45 nM.
In assay [1], AAN (modifications not checked) [Cbz-Ala-Ala-AAsn-CH═CH-CO-(4-Ph-Py)] returned an IC50 of 750 nM.
In assay [1], AAN (modifications not checked) [Cbz-Ala-Ala-AAsn-CH═CH-CO-isoindoline] showed an IC50 of 300 nM.
On the same count and under the same terms, the result for AAN (modifications not checked) [Cbz-Ala-Ala-AAsn-CH═CH-CONHPh] reads 700 nM.
Hydrocinnamoyl-Leu-[AOrn]-{CH:CH‑COOEt} (reading uncertain; also: printed as PhPr-Leu-AOrn-CH═CH-COOEt) [PhPr-Leu-AOrn-CH═CH-COOEt]: the k2 in assay [2] is 788 M⁻¹ s⁻¹; in assay [3], 927000 M⁻¹ s⁻¹; in assay [4], 32 M⁻¹ s⁻¹.
Consider LR (modifications not checked) [PhPr-Leu-AArg-CH═CH-CON(CH2Ph)2], for which the results for the k2 in assay [2] and in assay [4] were 474000 M⁻¹ s⁻¹ and 804000 M⁻¹ s⁻¹, respectively.
For the molecule LK (modifications not checked) [PhPr-Leu-ALys-CH═CH-COOCH2Ph], the k2 came out at 20500 M⁻¹ s⁻¹ in assay [2], 2.51e+06 M⁻¹ s⁻¹ in assay [3] and 632 M⁻¹ s⁻¹ in assay [4].
For LK (modifications not checked) [PhPr-Leu-ALys-CH═CH-CON(Bzl)-p-CH2C6H4F], the k2 is 13800 M⁻¹ s⁻¹ in assay [2], 801000 M⁻¹ s⁻¹ in assay [3] and 75 M⁻¹ s⁻¹ in assay [4].
For Cbz-Ala-Ala-[AAsn]-{CH:CH‑CON(CH3)Bzl} [Cbz-Ala-Ala-AAsn-CH═CH-CON(CH3)Bzl], the 50% inhibitory concentration (IC50) in assay [1] is 55 nM.
For the molecule LK (modifications not checked) [PhPr-Leu-ALys-CH═CH-CON(4H-quinoline)], the k2 in assay [2] stood at 326 M⁻¹ s⁻¹; in assay [3], 252000 M⁻¹ s⁻¹; in assay [4], 73 M⁻¹ s⁻¹.
Regarding Cbz-Ala-Ala-[AAsn]-{CH:CH‑CON(Bzl)‑2‑CH2‑Napth} [Cbz-Ala-Ala-AAsn-CH═CH-CON(Bzl)-2-CH2-Napth], the IC50 in assay [1] amounted to 70 nM.
Take LK (modifications not checked) [PhPr-Leu-ALys-CH═CH-CONHCH2Ph]: the k2 in assay [2] was 1050 M⁻¹ s⁻¹; in assay [3], 236000 M⁻¹ s⁻¹; in assay [4], 20 M⁻¹ s⁻¹.
For the molecule AAN (modifications not checked) [Cbz-Ala-Ala-AAsn-CH═CH-CO-tetrahydroquinoline], in assay [1], the IC50 stood at 70 nM.
Take LK (modifications not checked) [PhPr-Leu-ALys-CH═CH-CON(Me)CH2Ph]: the k2 in assay [2] came to 6000 M⁻¹ s⁻¹; in assay [3], 1.36e+06 M⁻¹ s⁻¹; in assay [4] it was 79 M⁻¹ s⁻¹.
AAN (modifications not checked) [Cbz-Ala-Ala-AAsn-CH═CH-CO-Pip]: the IC50 in assay [1] is 1000 nM.
Take AAN (modifications not checked) [Cbz-Ala-Ala-AAsn-CH═CH-2-furyl]: the IC50 in assay [1] was > 2000 nM.
The molecule AAN (modifications not checked) [Biotinyl-Ala-Ala-AAsn-CH═CH-COOEt] yielded an IC50 in assay [1] of 10 nM. This lies in the double-digit nanomolar range.
Take LK (modifications not checked) [PhPr-Leu-ALys-CH═CH-CON(CH2-1-naphthyl2]: the figures for the k2 in assay [2], in assay [3] and in assay [4] were 2250 M⁻¹ s⁻¹, 1.89e+06 M⁻¹ s⁻¹ and 214 M⁻¹ s⁻¹, respectively.
As for LR (modifications not checked) [PhPr-Leu-AArg-CH═CH-COOEt], the k2 in assay [2] was 69600 M⁻¹ s⁻¹; in assay [3] it was 1580 M⁻¹ s⁻¹.
In turn, Cbz-Ala-Ala-[AAsn]-{CH:CH‑CONHCH2CH2Ph} [Cbz-Ala-Ala-AAsn-CH═CH-CONHCH2CH2Ph] showed an IC50 in assay [1] of 600 nM.
AAN (modifications not checked) [Cbz-Ala-Ala-AAsn-CH═CH-CON(Bzl-4-F)Bzl]: the IC50 in assay [1] amounted to 60 nM.
Same read-out and setting: the result for AAN (modifications not checked) [Cbz-Ala-Ala-AAsn-CH═CH-CO-tetrahydroisoquinoline] reads 200 nM.
Same read-out and setting: next, Cbz-Ala-Ala-[AAsn]-{CH:CH‑CON(Bzl)‑1‑CH2‑Napth} [Cbz-Ala-Ala-AAsn-CH═CH-CON(Bzl)-1-CH2-Napth]: 62 nM.
Consider Hydrocinnamoyl-Leu-[AOrn]-{CH:CH‑CON(CH2Ph)2} (reading uncertain) [PhPr-Leu-AOrn-CH═CH-CON(CH2Ph)2], for which the results for the k2 in assay [2], in assay [3] and in assay [4] were 541 M⁻¹ s⁻¹, 61600 M⁻¹ s⁻¹ and 541 M⁻¹ s⁻¹, respectively.
AAN (modifications not checked) [Cbz-Ala-Ala-AAsn-CH═CH-CO-MePhe-N(CH3)CH2CH2Ph] registered an IC50 in assay [1] of 750 nM. In other words, the sub-micromolar range.
With AAN (modifications not checked) [Cbz-Ala-Ala-AAsn-CH═CH-COOBzl], the IC50 in assay [1] was determined as 38 nM.
Take Hydrocinnamoyl-Leu-[AOrn]-{CH:CH‑CONHCH2Ph} (reading uncertain) [PhPr-Leu-AOrn-CH═CH-CONHCH2Ph]: the results for the k2 in assay [3] and in assay [4] were 24700 M⁻¹ s⁻¹ and 71 M⁻¹ s⁻¹, respectively.
As for AAN (modifications not checked) [Cbz-Ala-Ala-AAsn-CH═CH-CON(nBu)2], in assay [1], the half-inhibitory concentration (IC50) came to 550 nM. That is a sub-micromolar value.
In turn, Cbz-Ala-Ala-[AAsn]-{CH:CH‑COOEt} [Cbz-Ala-Ala-AAsn-CH═CH-COOEt] had an IC50 in assay [1] of 31 nM.
For Hydrocinnamoyl-Ala-[AOrn]-{CH:CH‑COOEt} (reading uncertain) [PhPr-Ala-AOrn-CH═CH-COOEt], the figures for the k2 in assay [3] and in assay [4] were 632000 M⁻¹ s⁻¹ and 18 M⁻¹ s⁻¹, respectively.
Turning to LK (modifications not checked) [PhPr-Leu-ALys-CH═CH-CON(Me)CH2-1-naphthyl], the figures for the k2 in assay [2], in assay [3] and in assay [4] were 639 M⁻¹ s⁻¹, 975000 M⁻¹ s⁻¹ and 576 M⁻¹ s⁻¹, respectively.
Molecule Cbz-Ala-Ala-[AAsn]-{CH:CH‑CO‑indoline} [Cbz-Ala-Ala-AAsn-CH═CH-CO-indoline] returned an IC50 in assay [1] of 70 nM.
Consider LK (modifications not checked) [PhPr-Leu-ALys-CH═CH-COOEt], for which the k2 came out at 40800 M⁻¹ s⁻¹ in assay [2], 3.28e+06 M⁻¹ s⁻¹ in assay [3] and 289 M⁻¹ s⁻¹ in assay [4].
For LK (modifications not checked) [PhPr-Leu-ALys-CH═CH-CON(Bzl)CH2-2-naphthyl], the k2 was 17500 M⁻¹ s⁻¹ in assay [2], 811000 M⁻¹ s⁻¹ in assay [3] and 98 M⁻¹ s⁻¹ in assay [4].
For AAN (modifications not checked) [Cbz-Ala-Ala-AAsn-CH═CH-3-Py], the IC50 in assay [1] is > 2000 nM.
As to LR (modifications not checked) [PhPr-Leu-AArg-CH═CH-CONHCH2Ph], the k2 in assay [2] was 287000 M⁻¹ s⁻¹; in assay [4], 555000 M⁻¹ s⁻¹.
As to LK (modifications not checked) [PhPr-Leu-ALys-CH═CH-CON(CH2Ph)2], the results for the k2 in assay [2], in assay [3] and in assay [4] were 20000 M⁻¹ s⁻¹, 2.13e+06 M⁻¹ s⁻¹ and 65 M⁻¹ s⁻¹, respectively.
AAN (modifications not checked) [Cbz-Ala-Ala-AAsn-CH═CH-CONHBzl] showed an IC50 in assay [1] of 1000 nM.
AAN (modifications not checked) [Cbz-Ala-Ala-AAsn-CH═CH-CONH-Bzl-4-F] gave an IC50 in assay [1] of 800 nM.
On the same count and under the same terms, the result for AAN (modifications not checked) [Cbz-Ala-Ala-AAsn-CH═CH-CON(Bzl)Ph] reads 70 nM.
With AAN (modifications not checked) [Cbz-Ala-Ala-AAsn-CH═CH-CON(CH3)CH2CH2Ph], the IC50 in assay [1] was found to be 600 nM.
As to AAN (modifications not checked) [Cbz-Ala-Ala-AAsn-CH═CH-CON(CH3)Ph], the IC50 in assay [1] was found to be 60 nM.
